In the DeepSol protein solubility set:

Test: soluble on expression in E. coli; label from the status in PepcDB or PDB records

Sequence	soluble on expression in E. coli
MSLERLNKPSAPRYSRLREWVVGCAPNDLVVVKFGGSVLNGSPGFLAAGRLVLGLLESGLEPVVVVSAVKGVTDALLSSFERRDPGVGGAVGKTYLSIARELGLPPESVRDVSLASAEVSKLLWAAEVLGQWTPRVRDLVVSYGERLSAALMAGLLRRLGVEARWLGGGEAGIVTDGEFGDATPLYGYTEGVIRERLEPMLEEGVVPVVAGFTGATREGDTTLLGRGGSDLTATLLASALGAGRVVLYTDVPGILSGDPRVVGEPRRVGYMSYEEAWEVARLGLRKFHPRTFEPLIAGGLGVEVVVSDLRGRSTRIGPGRGGPPLKVVSLSRGVARLVVRGPSMAGKRGFLSRLAGLLAGRGVNILAIRQPPSETAIELVVDERDLPAAVEELGARSGAAGVRLEVERGFDVVSIVGWGAVEALPEALSAAEKTGGRLLSTGELSPSISILARGRTSPELARLLHRRVVESWVTGEGHHHHHH	not soluble
MSLLIKNGTIVNDDAIFKSDVLVLDGRIVEIAPSIQPTPGLEVVDATDRLVIPGGIDPHTHMQLPFMGEIAKDDFHRGTEAAVAGGTTMIIDFVIPTKGESLLVAYDRWRGWADPKVVCDYGLSMAITSWGPEIAKEMEIVTGAEYGINSFKFFLAYAGVFMVRDEEFYQGMIQCAKLRALARVHAENGSVIAERCEHLLSSGITGPEGHTQSRPEELEAEATFRACTMASQANCPLYVVHVMSKGAAAAIAHHRKKGAVVFGEPIAAGLATDGSHYYNEDWLHAARYVMSPPLSRDPSTPSALMKLLAAGELHLTATDNCTFDCQQKSLGKDDFTKIPNGVNGVEDRMSVVWDKGVHAGIIDPMRFVAVTSTMAAKIFNCYPQKGRIAVGSDADIVIWNANATRTISKDTHHHAIDFNIFEGMQVHGVPEITISRGRTVWANGQLKTVQGSGQFIPLAPDSQIVFSAVDNRKKAMEPVKIDRIPYEPSALQTPDANANIVVKAPVRAAIPPGGASSIQF	not soluble
MGSDKIHHHHHHKVSEAEAAKLGTSLTPMGGEMAASADGSIPAWNGGITAAPAGYKKGDHHPDPYSADKVEYTVTKANLEQYKSLLTPGQIKLFELYPDTFKMNVYKTQRSASAPQWVYDATKANASRAELVQGGNGVVGAAVGIPFPIPQNGLEAIWNHILRFRGVDIETQRNQAAPAKGGGYTLVELSEQLRFEYSQPDMTPEKLKENNTLALFKQVVTQPARLAGTALLVKETLDQEALPRQAWTYNTGQRRVRKAPNVAFDTPGTVSDGLRTTDDYDMFNGSPSRYNWELVGKKEILIPYNDYKLHSDKVKYDDILTPGHINPDLVRWEKHRVWEVKATLKDGMRHIYKTRVFFLDEDSWQVSATDMYDNRDELYRVAFAHGLNYYEVPAHWSTLEVFHDLQSRRYLAIGLDNEGSMYDFDAKLSASDFTPDALRREGVR	not soluble
MEIYLVFVDAASNSNKFWTAKVEQNQLTVQWDRVGYKAQTKVHQFTSQAQAANKYNNLVFEKKAKGYQESQPQIESCGVVDIRRAMQLLNGLRSYVTNRNFNADYINLLNQYLKIIPTPLGMQLEPYRIFTSVADVDHQRELLSSLIPATPVAVTQAKQMPESQEKIVSLRGIHKNLWRHFLEHHHHHH	not soluble
MSLMHTRYFTPSAQWIVQQLWPETLRFAKIEYLYPFKLRLSGVQIASEPTIELQQMDLWLNPYGLLEQQLEIDSVLIDGANLAHGLPNFTLPESVHLNQLALHNIDWADQGIIARGVSLQIKQPVWDSPQQQLPYGKIQLAADQITIDGEAFNQVLVDANYQAQDSTVYGFSFNWRNSPISGQAEQYPQGWSLINVTLSRLNLNLDEWRHHSLWQTIAPSIYHINSLDLLNSQLTLNGVAWENLNLSVEDYDLRHSLWQQQQAYLSLNADSAQWLATQWVEPSAELTLTPQGIELDGHSQVWQGDVQVKGHITETSLNLAQLTITGVKWIAEQPQDLLPFSQPLPAWQNLQIEHLDINNLQMIQTVNRPFWQASGLNADGKNLQWVKESQWGFWQGQLSVTANSASYAGVLSTQGVLNMRSEQGVWQLTRAFLPLERGYVEAHAKWDLTSLSAPWQLSLDADSLPIGPLQSWFKLPFGLEALADISLTAQGIAGDRTMLAHSLDGQLQLNLRQGLLSLRSDNTLIIQPFELDDLAVSADRGRITITPTPLRGPNLNAQLGGSTDLLEPEQGQWQLTIQQAWADQCLGLSWDFQQAELVSQDCRSAPEGHHHHHH	soluble
MGSDKIHHHHHHMNQDRNKLLSKIAYLYYIENLNQSQIAAKLGIYRTSISRMLTEARNVGIVKIEIENFDTNMFKLENYVKEKYSLESLEIIPNEFDDTPTILSERISQVAAGVLRNLIDDNMKIGFSWGKSLSNLVDLIHSKSVRNVHFYPLAGGPSHIHAKYHVNTLIYEMSRKFHGECTFMNATIVQENKLLADGILQSRYFENLKNSWKDLDIAVVGIGDFSNKGKHQWLDMLTEDDFKELTKVKTVGEICCRFFDSKGKEVYENLQERTIAISLEDLKNIPQSLAVAYGDTKVSSILSVLRANLVNHLITDKNTILKVLEEDGDLTFREILGE	not soluble
MKLKNTLLASALLSAMAFSVNAATELTPEQAAAVKPFDRVVVTGRFNAIGEAVKAVSRRADKEGAASFYVVDTSDFGNSGNWRVVADLYKADAEKAEETSNRVINGVVELPKDQAVLIEPFDTVTVQGFYRSQPEVNDAITKAAKAKGAYSFYIVRQIDANQGGNQRITAFIYKKDAKKRIVQSPDVIPADSEAGRAALAAGGEAAKKVEIPGVATTASPSSEVGRFFETQSSKGGRYTVTLPDGTKVEELNKATAAMMVPFDSIKFSGNYGNMTEVSYQVAKRAAKKGAKYYHITRQWQERGNNLTVSADLYKLEHHHHHH	not soluble
KLSPMIDLWDTLQSLLHVQELHVVAAHGEVKELLVRMSLNEATIPPEKVPIHAINLLLEDTVIPFIFTMEEERSISIPYTDSIDKYVYEPHTALLKAGAFKTVAYRLGLRKLHPNSHLYTSEAYESAFPGRTFVLEEIIPFSTSVLKQLRKVVPQASISCRNFPLSPIELRQRSKMADGGEKTLMGTTMADGKKVLLLLRKAE	not soluble
MGYTVAVVGATGAVGAQMIKMLEESTLPIDKIRYLASARSAGKSLKFKDQDITIEETTETAFEGVDIALFSAGSSTSAKYAPYAVKAGVVVVDNTSYFRQNPDVPLVVPEVNAHALDAHNGIIACPNCSTIQMMVALEPVRQKWGLDRIIVSTYQAVSGAGMGAILETQRELREVLNDGVKPRDLHAEILPSGGDKKHYPIAFNALPQIDVFTDNDYTYEEMKMTKETKKIMEDDSIAVSATCVRIPVLSAHSESVYIETKEVAPIEEVKAAIAAFPGAVLEDDVAHQIYPQAINAVGSRDTFVGRIRKDLDAEKGIHMWVVSDNLLKGAAWNSVQIAETLHERGLVRPTAELKFELK	soluble
MLWRKRLFAHLYPGLSARHEALVAERKRALFREALRRARPERVLEIGPGPGTNLAHLPEGVAYLALEPNPFFHPRLREEARKRGLALTLLPGRAEAIPLPGGSVDLVVATLVLCSVADPEKAIEEVHRVLRPGGAYLFLEHVAAPKGAPLRLLQEAATPFFVFFGDGCHPNRKTLAQIQARFPRVEAEAFSLPLPVVAPHVAGLAFKELEHHHHHH	not soluble
MSLKVIICGAGQVGYGIAEQLSREDNEVSVIDTAAPLITAITETLDVRGYVGHGAHPDMLAKAGADQADMIIAVTLHDEINIVACEVAHALFSVPTKIARIRDQSYMKPEYADLFSRENMSIDVTISPEVEVGKMVLRRIAFPGATDVVRFAEDTIYMLAIECMEDCPVINTPLQQLSSLFPDLIATVVGVYRDGILKVAHSSEQLRVGDLAYVICQRQHARRTLSLFGHEEQEGHHHHHH	not soluble
MGKEKSHINVVVIGHVDSGKSTTTGHLIYKCGGIDKRTIEKFEKEAAELGKGSFKYAWVLDKLKAERERGITIDIALWKFETPKYQVTVIDAPGHRDFIKNMITGTSQADCAILIIAGGVGEFEAGISKDGQTREHALLAFTLGVRQLIVAVNKMDSVKWDESRFQEIVKETSNFIKKVGYNPKTVPFVPISGWNGDNMIEATTNAPWYKGWEKETKAGVVKGKTLLEAIDAIEQPSRPTDKPLRLPLQDVYKIGGIGTVPVGRVETGVIKPGMVVTFAPAGVTTEVKSVEMHHEQLEQGVPGDNVGFNVKNVSVKEIRRGNVCGDAKNDPPKGCASFNATVIVLNHPGQISAGYSPVLDCHTAHIACRFDELLEKNDRRSGKKLEDHPKFLKSGDAALVKFVPSKPMCVEAFSEYPPLGRFAVRDMRQTVAVGVIKSVDKTEKAAKVTKAAQKAAKK	soluble
MGSDKIHHHHHHMYRIRVFGDPVLRKRAKPVTKFDENLKKTIERMIETMYHYDGVGLAAPQVGISQRFFVMDVGNGPVAVINPEILEIDPETEVAEEGCLSFPEIFVEIERSKRIKVKYQNTRGEYVEEELEGYAARVFQHEFDHLNGVLIIDRISPAKRLLLRKKLMDIARTVKR	soluble
DYSYLFGQGGTELFGEFAGAANGAVGTINGLRYTHPVGGSYMLVGRYIPADYWSYYRGAFARYSRPGNEWGVMGRAAWELPSDRTVRAFADYYGSFVPRFGRKEKTEALYWMFEGEKRLSALSWSCRIRGTADKRYRRSLAVRLRGRYMFDERWRLMASLQWSRSNSFDRELQTWQAPTGGKSFALRADYSGGKLLRVCSMDAVAFDTDSFADRLYEAVHNPRHHYSSAFFYGRGVRLGVFVRIAPLPQVEVESRIDHLLRRDTDTIGSAGELIRGQARTHLFMTVRYR	not soluble
MVAKIKKFSDSTLSVLNNGERRFYVYCLTDLKKDKILYIGKGCGNRIFEHEWVASRSQDPVSGEIIDRKLKAISKCKKLGRYIISYHLTEVEALAAESALIHFVKSVLGKKLKNKIAGHGPGGISVEELDRRFGFSSLPLNEINPDGLILAIKIHNAFDLDTDEELDYLFDNQDDANLKSRTLGNWVIGKDVASKVKYVIGVHTGLQNAVVSAYEVDGFETMVEETKNGRKQSRYRFRTTSRSEEVLAKLGLQQKCLPELKFGSGGEKAYIRPKTETETEQENIQTTPNPKIKKEKTKSLEHHHHHH	soluble
GSHMSPKIVDAGTATVPHTMSTMKTADNRPASVYLKKDKPTLIKFWASWCPLCLSELGQAEKWAQDAKFSSANLITVASPGFLHEKKDGEFQKWYAGLNYPKLPVVTDNGGTIAQNLNISVYPSWALIGKDGDVQRIVKGSINEAQALALIRNPNADLGSLKHS	soluble
MIYPDETMLYAPVEWHDCSEGYTDIRYEKSTDGIAKITINRPQVRNAFRPLTVKEMIQALADARYDDNVGVIILTGEGDKAFCAGGDQKVRGDYGGYQDDSGVHHLNVLDFQRQIRTCPKPVVAMVAGYSIGGGHVLHMMCDLTIAAENAIFGQTGPKVGSFDGGWGASYMARIVGQKKAREIWFLCRQYDAQQALDMGLVNTVVPLADLEKETVRWCREMLQNSPMALRCLKAALNADCDGQAGLQELAGNATMLFYMTEEGQEGRNAFNQKRQPDFSKFKRNP	not soluble
MTIIFPSPIFGPVHSRRLGVSLGINLLPEDGKVCSFDCIYCECGFNADHRPKKHLPTREEVRIALEEKLKDMQKNGPAPDVLTFAGNGEPTAHPHFPEIIEDTLALRDHYFPNAKVSVLSNSTFIDRPAVFDALNKIDNNILKLDTVNEEYIHLLDRPNGKYSVRKIIEKMKEFKGNCIVQTMFLKGSYLGKDMNNTSDEFVLPWLEAVKEIAPSQVMIYTIDRETPDHDLQKATHEELDRIVELIKRTGIPATASY	not soluble
MGSDKIHHHHHHMSLIHLQADHIRPLVYLHGKVDDHEVAFLEHLNGPPKNAVRVGNTVTFIEHDQTAYSVRAERIQGVLPPAFAGVISDLESGYQFVLGGRSRLAGRPSQLVRIIPNDDNRYSYQVWLDMDTYLPLRYDMLNLEKQLLEQVLVVELIVLDDAPAILREAYKQDWPEIMPQPQREQADNWQFKWLPQGFKILVKDNHRLIGSHEAVEYIALSDGLVNISVYVARAGETALPDELMTRNGLSLAAERVGNAEVVAVGKVPAETLSRIAKSITIE	not soluble
